Measured values as given in PMC9482650, “Quantitative fragmentomics allow affinity mapping of interactomes” (Nature Communications, 2022).

What was measured:
Experiment in all cases: holdup assay
Parameters in all cases: key: below the threshold = too weak to quantify, mostly under pKd 3.1 to 4
DLG3_2, Q92796 = molecular target: T1, DLG3_2, Q92796
T1 sequence (Q92796 221-321, limits assumed, looked up): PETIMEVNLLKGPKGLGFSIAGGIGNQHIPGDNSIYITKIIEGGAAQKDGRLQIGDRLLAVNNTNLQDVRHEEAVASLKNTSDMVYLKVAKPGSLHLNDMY

DLG4_1, P78352 = molecular target: DLG4_1, P78352
Sequence of DLG4_1, P78352 (P78352 62-152): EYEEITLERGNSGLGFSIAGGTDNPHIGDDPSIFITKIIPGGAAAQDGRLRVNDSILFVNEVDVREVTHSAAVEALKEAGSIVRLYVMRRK

FRMPD4, Q14CM0 = molecular target: FRMPD4, Q14CM0
Sequence of FRMPD4, Q14CM0 (Q14CM0 67-160): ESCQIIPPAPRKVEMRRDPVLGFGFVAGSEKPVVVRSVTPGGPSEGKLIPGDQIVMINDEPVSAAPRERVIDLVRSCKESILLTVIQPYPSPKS

GRIP2_7, Q9C0E4 = molecular target: GRIP2_7, Q9C0E4
Sequence of GRIP2_7, Q9C0E4 (Q9C0E4 934-1023): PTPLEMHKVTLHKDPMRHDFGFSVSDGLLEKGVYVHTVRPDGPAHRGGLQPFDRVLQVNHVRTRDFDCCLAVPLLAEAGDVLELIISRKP

HTRA1, Q92743 = molecular target: HTRA1, Q92743
Sequence of HTRA1, Q92743 (Q92743 360-477): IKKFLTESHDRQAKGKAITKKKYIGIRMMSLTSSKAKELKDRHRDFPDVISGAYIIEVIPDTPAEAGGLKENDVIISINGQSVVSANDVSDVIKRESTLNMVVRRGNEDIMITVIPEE

HTRA4, P83105 = molecular target: T2, HTRA4, P83105
T2 sequence (P83105 378-476, limits assumed, looked up): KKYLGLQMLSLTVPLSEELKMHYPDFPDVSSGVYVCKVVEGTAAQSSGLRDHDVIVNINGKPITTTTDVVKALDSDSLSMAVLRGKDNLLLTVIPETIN

IL16_3, Q14005 = molecular target: IL16_3, Q14005
Sequence of IL16_3, Q14005 (Q14005 1107-1207): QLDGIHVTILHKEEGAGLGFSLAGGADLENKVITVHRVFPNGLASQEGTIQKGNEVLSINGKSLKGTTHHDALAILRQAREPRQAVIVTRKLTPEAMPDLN

Inadl_3, Q8NI35 = molecular target: Inadl_3, Q8NI35
Sequence of Inadl_3, Q8NI35 (Q8NI35 359-469): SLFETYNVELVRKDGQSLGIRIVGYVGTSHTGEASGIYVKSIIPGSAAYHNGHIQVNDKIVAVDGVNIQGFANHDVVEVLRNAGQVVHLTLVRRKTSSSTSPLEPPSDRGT

Inadl_9, Q8NI35 = molecular target: Inadl_9, Q8NI35
Sequence of Inadl_9, Q8NI35 (Q8NI35 1530-1615): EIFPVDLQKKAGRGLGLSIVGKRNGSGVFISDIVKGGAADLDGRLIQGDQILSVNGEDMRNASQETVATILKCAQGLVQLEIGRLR

LIMK2, P53671 = molecular target: LIMK2, P53671
Sequence of LIMK2, P53671 (P53671 143-248): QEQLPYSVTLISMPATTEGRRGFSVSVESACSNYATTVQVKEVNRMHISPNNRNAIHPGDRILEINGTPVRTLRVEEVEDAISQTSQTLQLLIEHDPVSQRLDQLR

LIN7A, O14910 = molecular target: T3, LIN7A, O14910
T3 sequence (O14910 103-200, limits assumed, looked up): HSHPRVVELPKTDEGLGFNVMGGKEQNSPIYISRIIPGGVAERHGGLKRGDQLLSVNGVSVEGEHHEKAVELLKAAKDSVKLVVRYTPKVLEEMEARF

LNX1_1, Q8TBB1 = molecular target: LNX1_1, Q8TBB1
Sequence of LNX1_1, Q8TBB1 (Q8TBB1 261-371): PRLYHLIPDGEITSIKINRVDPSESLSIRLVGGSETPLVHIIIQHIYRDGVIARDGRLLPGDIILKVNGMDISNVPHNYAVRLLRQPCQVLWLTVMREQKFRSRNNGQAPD

MAGI1_2, Q96QZ7 = molecular target: MAGI1_2, Q96QZ7
Sequence of MAGI1_2, Q96QZ7 (Q96QZ7 456-580): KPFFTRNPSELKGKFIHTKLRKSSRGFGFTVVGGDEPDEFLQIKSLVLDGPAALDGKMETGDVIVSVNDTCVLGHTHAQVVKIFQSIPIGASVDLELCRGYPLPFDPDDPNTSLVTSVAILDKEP

MAGI2_3, Q86UL8 = molecular target: MAGI2_3, Q86UL8
Sequence of MAGI2_3, Q86UL8 (Q86UL8 600-682): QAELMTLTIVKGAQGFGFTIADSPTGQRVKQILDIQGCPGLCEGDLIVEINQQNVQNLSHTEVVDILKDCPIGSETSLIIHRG

MAGI2_5, Q86UL8 = molecular target: MAGI2_5, Q86UL8
Sequence of MAGI2_5, Q86UL8 (Q86UL8 915-1017): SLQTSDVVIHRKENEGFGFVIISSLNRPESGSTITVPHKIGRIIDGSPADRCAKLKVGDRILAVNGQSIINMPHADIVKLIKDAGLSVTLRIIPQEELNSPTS

MAST1, Q9Y2H9 = molecular target: MAST1, Q9Y2H9
Sequence of MAST1, Q9Y2H9 (Q9Y2H9 962-1065): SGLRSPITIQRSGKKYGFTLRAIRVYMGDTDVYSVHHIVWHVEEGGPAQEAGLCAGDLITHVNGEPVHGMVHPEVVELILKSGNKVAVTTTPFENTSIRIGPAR

MPP7, Q5T2T1 = molecular target: T4, MPP7, Q5T2T1
T4 sequence (Q5T2T1 134-230, limits assumed, looked up): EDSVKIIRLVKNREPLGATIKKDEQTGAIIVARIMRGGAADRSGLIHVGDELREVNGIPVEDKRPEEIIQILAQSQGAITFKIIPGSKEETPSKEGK

NHERF2_2, Q15599 = molecular target: NHERF2_2, Q15599
Sequence of NHERF2_2, Q15599 (Q15599 142-238): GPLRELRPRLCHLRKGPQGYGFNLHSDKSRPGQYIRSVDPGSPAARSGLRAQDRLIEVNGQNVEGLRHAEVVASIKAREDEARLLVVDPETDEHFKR

NHERF3_4, Q5T2W1 = molecular target: T5, NHERF3_4, Q5T2W1
T5 sequence (Q5T2W1 373-468, limits assumed, looked up): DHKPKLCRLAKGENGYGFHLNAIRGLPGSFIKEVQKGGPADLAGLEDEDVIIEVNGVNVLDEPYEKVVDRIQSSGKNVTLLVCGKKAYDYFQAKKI

NHERF4_2, Q86UT5 = molecular target: NHERF4_2, Q86UT5
Sequence of NHERF4_2, Q86UT5 (Q86UT5 220-308): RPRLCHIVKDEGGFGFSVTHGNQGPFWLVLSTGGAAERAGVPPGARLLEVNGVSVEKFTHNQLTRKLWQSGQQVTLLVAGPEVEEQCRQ

PARD3B_1, Q8TEW8 = molecular target: T6, PARD3B_1, Q8TEW8
T6 sequence (Q8TEW8 196-299, limits assumed, looked up): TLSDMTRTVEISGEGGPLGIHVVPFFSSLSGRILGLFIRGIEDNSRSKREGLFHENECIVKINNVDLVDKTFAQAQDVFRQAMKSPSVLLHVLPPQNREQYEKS

PDZRN3_1, Q9UPQ7 = molecular target: T7, PDZRN3_1, Q9UPQ7
T7 sequence (Q9UPQ7 244-349, limits assumed, looked up): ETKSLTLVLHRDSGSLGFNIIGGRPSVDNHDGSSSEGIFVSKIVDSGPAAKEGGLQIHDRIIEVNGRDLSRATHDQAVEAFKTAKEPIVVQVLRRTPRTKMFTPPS

PICK1, Q9NRD5 = molecular target: PICK1, Q9NRD5
Sequence of PICK1, Q9NRD5 (Q9NRD5 17-115): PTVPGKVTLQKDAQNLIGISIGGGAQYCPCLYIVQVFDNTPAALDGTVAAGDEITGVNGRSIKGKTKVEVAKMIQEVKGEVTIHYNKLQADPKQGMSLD

RAPGEF6, Q8TEU7 = molecular target: T8, RAPGEF6, Q8TEU7
T8 sequence (Q8TEU7 525-625, limits assumed, looked up): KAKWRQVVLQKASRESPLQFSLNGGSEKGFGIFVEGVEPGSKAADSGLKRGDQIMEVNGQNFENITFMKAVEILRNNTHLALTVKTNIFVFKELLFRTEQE

SCRIB_3, Q14160 = molecular target: SCRIB_3, Q14160
Sequence of SCRIB_3, Q14160 (Q14160 999-1103): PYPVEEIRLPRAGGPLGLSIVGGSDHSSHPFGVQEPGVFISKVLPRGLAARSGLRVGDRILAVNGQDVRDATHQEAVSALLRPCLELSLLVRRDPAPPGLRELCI

SNTG1, Q9NSN8 = molecular target: T9, SNTG1, Q9NSN8
T9 sequence (Q9NSN8 52-150, limits assumed, looked up): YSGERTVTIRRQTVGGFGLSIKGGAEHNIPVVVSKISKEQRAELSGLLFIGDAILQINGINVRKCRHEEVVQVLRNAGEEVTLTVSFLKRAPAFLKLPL

SNTG2, Q9NY99 = molecular target: T10, SNTG2, Q9NY99
T10 sequence (Q9NY99 68-166, limits assumed, looked up): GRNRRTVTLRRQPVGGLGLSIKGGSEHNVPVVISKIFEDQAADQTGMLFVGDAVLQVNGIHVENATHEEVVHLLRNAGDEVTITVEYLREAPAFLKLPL

[1] = plain residues with an end cap or a label only (N-terminal biotin on a linker: ado-ado)
[2] = plain residues with an end cap or a label only (N-terminal biotin on a linker: ttds)
[3] = plain residues with an end cap or a label only (N-terminal biotin on a linker: none)

With RGGFGRQTQI [NCBP2L, A6PVI3] the pKd (DLG3_2, Q92796; [1]) was 4.68, the pKd (DLG4_1, P78352; [1]) was 4.25 and the pKd (FRMPD4, Q14CM0; [1]) was “below the threshold”. For the same binder, the pKd (GRIP2_7, Q9C0E4; [1]) was “below the threshold”, the pKd (HTRA1, Q92743; [1]) was “below the threshold” and the pKd (HTRA4, P83105; [1]) was “below the threshold”. For the same binder, the pKd (IL16_3, Q14005; [1]) was “below the threshold”, the pKd (Inadl_3, Q8NI35; [1]) was “below the threshold” and the pKd (Inadl_9, Q8NI35; [1]) was “below the threshold”. For the same binder, the pKd (LIMK2, P53671; [1]) was “below the threshold”, the pKd (LIN7A, O14910; [1]) was “below the threshold” and the pKd (LNX1_1, Q8TBB1; [1]) was “below the threshold”. The pKd (MAGI1_2, Q96QZ7; [1]) was 3.98, the pKd (MAGI2_3, Q86UL8; [1]) was 3.51 and the pKd (MAGI2_5, Q86UL8; [1]) was “below the threshold”. The pKd (MAST1, Q9Y2H9; [1]) was 4.6, the pKd (MPP7, Q5T2T1; [1]) was “below the threshold” and the pKd (NHERF2_2, Q15599; [1]) was “below the threshold”. The pKd (NHERF3_4, Q5T2W1; [1]) was “below the threshold”, the pKd (NHERF4_2, Q86UT5; [1]) was “below the threshold” and the pKd (PARD3B_1, Q8TEW8; [1]) was “below the threshold”. For the same binder, the pKd (PDZRN3_1, Q9UPQ7; [1]) was 3.74, the pKd (PICK1, Q9NRD5; [1]) was “below the threshold” and the pKd (RAPGEF6, Q8TEU7; [1]) was “below the threshold”. For the same binder, the pKd (SCRIB_3, Q14160; [1]) was 4.48, the pKd (SNTG1, Q9NSN8; [1]) was “below the threshold” and the pKd (SNTG2, Q9NY99; [1]) was 3.52.

HRTCYLVTQL [ASIC3, Q9UHC3] showed a pKd (DLG3_2, Q92796; [2]) of 3.97, a pKd (DLG4_1, P78352; [2]) of 3.78 and a pKd (FRMPD4, Q14CM0; [2]) of 3.77. It also gave a pKd (GRIP2_7, Q9C0E4; [2]) of 3.48, a pKd (HTRA1, Q92743; [2]) of 4.39 and a pKd (HTRA4, P83105; [2]) of 4.83. The pKd (IL16_3, Q14005; [2]) was “below the threshold”, the pKd (Inadl_3, Q8NI35; [2]) was 3.33 and the pKd (Inadl_9, Q8NI35; [2]) was “below the threshold”. The pKd (LIMK2, P53671; [2]) was “below the threshold”, the pKd (LIN7A, O14910; [2]) was “below the threshold” and the pKd (LNX1_1, Q8TBB1; [2]) was 4.03. It also gave a pKd (MAGI1_2, Q96QZ7; [2]) of 4.83, a pKd (MAGI2_3, Q86UL8; [2]) of 3.47 and a pKd (MAGI2_5, Q86UL8; [2]) of 4.63. For the same binder, the pKd (MAST1, Q9Y2H9; [2]) was 4, the pKd (MPP7, Q5T2T1; [2]) was 3.25 and the pKd (NHERF2_2, Q15599; [2]) was 4.5. It also gave a pKd (NHERF3_4, Q5T2W1; [2]) of 4.69, a pKd (NHERF4_2, Q86UT5; [2]) of 3.21 and a pKd (PARD3B_1, Q8TEW8; [2]) of 3.95. It also gave a pKd (PDZRN3_1, Q9UPQ7; [2]) of 4.08, a pKd (PICK1, Q9NRD5; [2]) of 3.63 and a pKd (RAPGEF6, Q8TEU7; [2]) of 3.49. It also gave a pKd (SCRIB_3, Q14160; [2]) of 4.85, a pKd (SNTG1, Q9NSN8; [2]) of 3.72 and a pKd (SNTG2, Q9NY99; [2]) of 3.75.

Binder DSKPPLPPDEWV [MERS-E, K9N5R3] has a pKd (DLG3_2, Q92796; [3]) of 3.96, a pKd (DLG4_1, P78352; [3]) of 3.62 and a pKd (FRMPD4, Q14CM0; [3]) of 4.07. It also gave a pKd (GRIP2_7, Q9C0E4; [3]) of 3.86, a pKd (HTRA1, Q92743; [3]) of 4.34 and a pKd (HTRA4, P83105; [3]) of 3.68. For the same binder, the pKd (IL16_3, Q14005; [3]) was “below the threshold”, the pKd (Inadl_3, Q8NI35; [3]) was 3.55 and the pKd (Inadl_9, Q8NI35; [3]) was 3.57. The pKd (LIMK2, P53671; [3]) was “below the threshold”, the pKd (LIN7A, O14910; [3]) was “below the threshold” and the pKd (LNX1_1, Q8TBB1; [3]) was “below the threshold”. For the same binder, the pKd (MAGI1_2, Q96QZ7; [3]) was “below the threshold”, the pKd (MAGI2_3, Q86UL8; [3]) was “below the threshold” and the pKd (MAGI2_5, Q86UL8; [3]) was “below the threshold”. The pKd (MAST1, Q9Y2H9; [3]) was 3.91, the pKd (MPP7, Q5T2T1; [3]) was “below the threshold” and the pKd (NHERF2_2, Q15599; [3]) was “below the threshold”. The pKd (NHERF3_4, Q5T2W1; [3]) was “below the threshold”, the pKd (NHERF4_2, Q86UT5; [3]) was “below the threshold” and the pKd (PARD3B_1, Q8TEW8; [3]) was 3.5. For the same binder, the pKd (PDZRN3_1, Q9UPQ7; [3]) was “below the threshold”, the pKd (PICK1, Q9NRD5; [3]) was “below the threshold” and the pKd (RAPGEF6, Q8TEU7; [3]) was “below the threshold”. The pKd (SCRIB_3, Q14160; [3]) was 3.9, the pKd (SNTG1, Q9NSN8; [3]) was 3.87 and the pKd (SNTG2, Q9NY99; [3]) was 3.59.

In the case of TGDTLEKFVEGL [CBP, Q92793], the pKd (DLG3_2, Q92796; [2]) is reported as “below the threshold”, the pKd (DLG4_1, P78352; [2]) is reported as 3.54 and the pKd (FRMPD4, Q14CM0; [2]) is reported as “below the threshold”. The pKd (GRIP2_7, Q9C0E4; [2]) was “below the threshold”, the pKd (HTRA1, Q92743; [2]) was “below the threshold” and the pKd (HTRA4, P83105; [2]) was “below the threshold”. For the same binder, the pKd (IL16_3, Q14005; [2]) was “below the threshold”, the pKd (Inadl_3, Q8NI35; [2]) was “below the threshold” and the pKd (Inadl_9, Q8NI35; [2]) was “below the threshold”. For the same binder, the pKd (LIMK2, P53671; [2]) was “below the threshold”, the pKd (LIN7A, O14910; [2]) was “below the threshold” and the pKd (LNX1_1, Q8TBB1; [2]) was “below the threshold”. For the same binder, the pKd (MAGI1_2, Q96QZ7; [2]) was “below the threshold”, the pKd (MAGI2_3, Q86UL8; [2]) was “below the threshold” and the pKd (MAGI2_5, Q86UL8; [2]) was “below the threshold”. For the same binder, the pKd (MAST1, Q9Y2H9; [2]) was “below the threshold”, the pKd (MPP7, Q5T2T1; [2]) was “below the threshold” and the pKd (NHERF2_2, Q15599; [2]) was “below the threshold”. For the same binder, the pKd (NHERF3_4, Q5T2W1; [2]) was “below the threshold”, the pKd (NHERF4_2, Q86UT5; [2]) was “below the threshold” and the pKd (PARD3B_1, Q8TEW8; [2]) was “below the threshold”. For the same binder, the pKd (PDZRN3_1, Q9UPQ7; [2]) was “below the threshold”, the pKd (PICK1, Q9NRD5; [2]) was “below the threshold” and the pKd (RAPGEF6, Q8TEU7; [2]) was “below the threshold”. The pKd (SCRIB_3, Q14160; [2]) was “below the threshold”, the pKd (SNTG1, Q9NSN8; [2]) was “below the threshold” and the pKd (SNTG2, Q9NY99; [2]) was “below the threshold”.
